Data on 3 molecules can be found in PMC2754608, “Toll-Like Receptor 4 Decoy, TOY, Attenuates Gram-Negative Bacterial Sepsis” (PLoS ONE, 2009).

In general, Kd refers to the equilibrium constant for the complex coming apart.

To fix the notation:
B1: TLR4 decoy receptor-3 (TOY3) (Fc fusion)
chain: EPCVEVVPNITYQCMELNFYKIPDNLPFSTKNLDLSFNPLRHLGSYSFFSFPELQVLDLSRCEIQTIEDGAYQSLSHLSTLILTGNPIQSLALGAFSGLSSLQKLVAVETNLASLENFPIGHLKTLKELNVAHNLIQSFKLPEYFSNLTNLEHLDLSSNKIQSIYCTDLRVLHQMPLLNLSLDLSLNPMNFIQPGAFKEIRLKELALDTNQLKSVPDGIFDRLTSLQKIWLHTNPWDCSCPRIDYLSRWLNKNSQKEQGSAKCSGSGKPVRSIICP
modifications: N-glycosylated (CHO). TLR4 27-227 limits are printed; VLRB.61 fragment limits are only in a figure, so taken from the TV3 hybrid crystal construct (PDB 2Z62, recalled from memory). Hagfish species …
B2: TLR4 decoy receptor-8 (TOY8) (Fc fusion)
chain: EPCVEVVPNITYQCMELNFYKIPDNLPFSTKNLDLSFNPLRHLGSYSFFSFPELQVLDLSRCEIQTIEDGAYQSLSHLSTLILTGNPIQSLALGAFSGLSSLQKLVAVETNLASLENFPIGHLKTLKELNVAHNLIQSFKLPEYFSNLTNLEHLDLSSNKIQSIYCTDLRVLHQMPLLNLSLDLSLNPMNFIQPGAFKEIRLHKLTLRNNFDSLNVMKTCIQGLAGLEVHRLVLGEFRNEGNLEKFDKSALEGLCNLTIEEFRLAYLDYYLDDIIDLFNCLTNVSSFSLVSVTIERVKDFSYNFGWQHLELVNCKFGQFPTLKLKSLKRLTFTSNKGGNAFSEVDLPSLEFLDLSRNGLSFKGCCSQSDFGTTSLKYLDLSFNGVITMSSNFLGLEQLEHLDFQHSNLKQMSEFSVFLSLRNLIYLDISHTHTRVAFNGIFNGLSSLEVLKMAGNSFQENFLPDIFTELRNLTFLDLSQCQLEQLSPTAFNSLSSLQVLNMASNQLKSVPDGIFDRLTSLQKIWLHTNPWDCSCPRIDYLSRWLNKNSQKEQGSAKCSGSGKPVRSIICP
modifications: N-glycosylated (CHO). TLR4 27-527 limits are printed; VLRB.61 fragment limits are only in a figure, so taken from the TV8 hybrid crystal construct (PDB 2Z63, recalled from memory). Hagfish species …
B3: myeloid differentiation protein-2 (MD-2) (natural protein, human, UniProt Q9Y6Y9 19-160, looked up)
chain: QKQYWVCNSSDASISYTYCDKMQYPISINVNPCIELKRSKGLLHIFYIPRRDLKQLYFNLYITVNTMNLPKRKEVICRGSDDDYSFCRALKGETVNTTISFSFKGIKFSKGKYKCVVEAISGSPEEMLFCLEFVILHQPNSN
notes: also called hMD-2

The target of assay [1] is B3. The experiment in a line: SPR; BIAcore 3000; TFE, TOY3 or TOY8 (1 µg) amine-coupled (NHS/EDC) on a CM5 chip at about 2,000 RU; BSA on a control portion of the chip; recombinant MD-2 flowed over; nonlinear curve fitting with BIAEVALUATION
As to conditions: both partners purified.

Assay [2] addresses T1, TLR4 full-length ectodomain fused to IgG-Fc (TFE) (human, UniProt O00206 27-631).
T1 construct: Toll-like receptor 4 (TLR4), human, full-length ectodomain, amino acid residues 27-631; Disulfide-linked dimer through the Fc domain (non-reducing SDS-PAGE); N-glycosylated; source: recombinant CHO cells (dhfr-deficient, MTX amplification), secreted, purified (Protein-A sepharose); not shown: Fc (human IgG1), C-terminal, kept
Described as above. To be noted: both partners purified.

Turning to B1, the dissociation constant (Kd) in assay [1] is roughly 76 nM. On to B2, for which the Kd in assay [1] was roughly 56 nM. For B3, in assay [2], the Kd was roughly 81 nM.
